B1: MACHα1 mutant in which the catalytic cysteine Cys360 is replaced by Ser (enzyme)
chain: MDFSRNLYDIGEQLDSEDLASLKFLSLDYIPQRKQEPIKDALMLFQRLQEKRMLEESNLSFLKELLFRINRLDLLITYLNTRKEEMERELQTPGRAQISAYRVMLYQISEEVSRSELRSFKFLLQEEISKCKLDDDMNLLDIFIEMEKRVILGEGKLDILKRVCAQINKSLLKIINDYEEFSKERSSSLEGSPDEFSNGEELCGVMTISDSPREQDSESQTLDKVYQMKSKPRGYCLIINNHNFAKAREKVPKLHSIRDRNGTHLDAGALTTTFEELHFEIKPHDDCTVEQIYEILKIYQLMDHSNMDCFICCILSHGDKGIIYGTDGQEAPIYELTSQFTGLKCPSLAGKPKVFFIQASQGDNYQKGIPVETDSEEQPYLEMDLSSPQTRYIPDEADFLLGMATVNNCVSYRNPAEGTWYIQSLCQSLRERCPRGDDILTILTEVNYEVSNKDDKKNMGKQMPQPTFTLRKKLVFPSD
notes: Gal4 fusion in two-hybrid tests; also called MACHα1 (C360S); MACHα (C360S)
B2: intracellular domain of human p55 TNF receptor (residues 206-426) (receptor, UniProt P19438 235-455, looked up)
chain: RYQRWKSKLYSIVCGKSTPEKEGELEGTTTKPLAPNPSFSPTPGFTPTLGFSPVPSSTFTSSSTYTPGDCPNFAAPRREVAPPYQGADPILATALASDPIPNPLQKWEDSAHKPQSLDTDDPATLYAVVENVPPLRWKEFVRRLGLSDHEIDRLELQNGRCLREAQYSMLATWRRRTPRREATLELLGRVLRDMDLLGCLEDIEEALCGPAALPPAPSLLR
notes: range 206-426; Gal4 fusion in two-hybrid tests; also called p55-IC; p55 IC
B3: MORT-1 protein (full-length) (other)
chain: VNQAPECRFGGGILGPLGKRRDLARASEPRTEGARRAGPQPRPLADPAMDPFLVLLHSVSSSLSSSELTELKFLCLGRVVKRKLERVQSGLDLFSMLLEQNDLEPGHTELLRELLASLRRHDLLRRVDDFEAGAAAGAAPGEEDLCAAFNVICDNVGKDWRRLARQLKVSDTKIDSIEDRYPRNLTERVRESLRIWKNTEKENATVAHLVGALRSCQMNLVADLVQEVQQARDLQNRSGAMSPMSWNSDASTSEAS
notes: Full-length construct; also called HF1; FADD
B5: MACHβ1 (ORF-B of MACH) (other)
chain: MDFSRNLYDIGEQLDSEDLASLKFLSLDYIPQRKQEPIKDALMLFQRLQEKRMLEESNLSFLKELLFRINRLDLLITYLNTRKEEMERELQTPGRAQISAYRVMLYQISEEVSRSELRSFKFLLQEEISKCKLDDDMNLLDIFIEMEKRVILGEGKLDILKRVCAQINKSLLKIINDYEEFSKERSSSLEGSPDEFSNDFGQSLPNEKQTSGILSDHQQSQFCKSTGESAQTSQH
notes: Gal4 fusion in two-hybrid tests; also called MACH B; MACH ORF-B

The data set “yeast two-hybrid” concerns the molecule itself. The experiment in a line: yeast two-hybrid. Here is the method:
(§1) In FIG. 5, there is shown the results of the interaction of MORT-1 and MACH within transfected yeast cells. Briefly, MORT-1 and MACHβ1 and their deletion constructs, as well as MACHα1, a MACHα1 mutant in which the catalytic cysteine Cys₃₆₀ is replaced by Ser (MACHα1 (C360S)) and the intracellular domain of human FAS-R (Fas-IC), were expressed within transfected SFY526 yeast in Gal4 DNA binding domain and activation domain constructs (pGBT9 and pGAD-GH). Their interaction was assessed by a β-galactosidase expression filter assay as described in Boldin et al (1995b). The results are presented in terms of the time required for the development of strong color. […] None of the inserts examined interacted with a number of tested negative controls, including the intracellular domains of human p55 TNF receptor, p75 TNF receptor and CD40, and lamin, cyclin D and ‘empty’ Gal4 vectors. MACHβ1 was cloned by two hybrid screening of a Gal4 AD-tagged human B cell library (Durfee et al, 1993) for proteins that bind to MORT-1, using the HF7c Yeast reporter strain. Except where otherwise indicated, all experimental procedures for the findings presented are as described above (see also Boldin et al, 1995). […] MACHβ1 also self-associated in the transfected yeast. […] Expression of MACHβ1 molecules in mammalian cells yielded a 34 kDa protein that bound to MORT-1 molecules co-expressed with it. It was also able to bind to a GST-MORT-1 fusion protein in vitro.

The target in data set [1] is B1. As to the kind of experiment: yeast two-hybrid, β-gal filter assay (FIG. 5).
The target of data set [2] is T1, MACHα1 (human, UniProt Q14790 1-479).
T1 construct: Gal4 fusion in two-hybrid tests; also called wild-type MACHα1
The experiment in a line: yeast two-hybrid, β-gal filter assay (FIG. 5).

The target of data set [3] is T2, MORT-1 fragment, amino acids 130-245 (C-terminal part with the death domain homology region) (human, UniProt Q13158 82-197).
T2 construct: Gal4 fusion in two-hybrid tests; expressed untagged in HeLa cells for the cytotoxicity test; also called MORT-1 DD; MORT-1 dd
T2 sequence: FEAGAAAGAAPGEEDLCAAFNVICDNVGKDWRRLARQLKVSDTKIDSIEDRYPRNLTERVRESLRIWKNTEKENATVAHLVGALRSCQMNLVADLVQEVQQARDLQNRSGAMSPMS
As to the kind of experiment: yeast two-hybrid, β-galactosidase test (FIG. 1).

The target of data set [4] is T3, mouse Fas-IC with replacement mutation I225A (mouse, UniProt P25446 187-327).
T3 construct: domain: intracellular domain
T3 sequence (looked up): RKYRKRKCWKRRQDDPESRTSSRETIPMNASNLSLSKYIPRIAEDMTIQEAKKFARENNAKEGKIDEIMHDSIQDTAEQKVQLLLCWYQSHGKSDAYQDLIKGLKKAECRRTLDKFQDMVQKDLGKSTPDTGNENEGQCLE
As to the kind of experiment: yeast two-hybrid, β-galactosidase test (FIG. 1).

Data set [5] addresses B2. The experiment in a line: yeast two-hybrid, β-galactosidase test (FIG. 1).
Data set [6] deals with T4, mouse Fas-IC with replacement mutation I225N (mouse, UniProt P25446 187-327).
T4 construct: domain: intracellular domain; The text calls the change 'Ile to Leu' but labels it I225N; also called lpr^eg mutation
T4 sequence (looked up): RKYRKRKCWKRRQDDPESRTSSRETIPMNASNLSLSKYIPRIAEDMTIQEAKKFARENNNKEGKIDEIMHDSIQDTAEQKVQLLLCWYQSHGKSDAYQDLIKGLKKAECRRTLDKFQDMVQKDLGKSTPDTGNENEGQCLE
As to the kind of experiment: yeast two-hybrid, β-galactosidase test (FIG. 1).

The target of data set [7] is T5, 'empty' Gal4 DNA-binding-domain vector pGBT9 (UniProt P04386 1-147).
T5 construct: Negative control
As to the kind of experiment: yeast two-hybrid, β-galactosidase test (FIG. 1); empty pGBT9 is named as a negative control in paragraph 206.

The data set “MACHβ1 (ORF-B of MACH)” concerns the target B5. The experiment in a line: yeast two-hybrid, β-galactosidase filter assay. As to the method: (§2) The yeast two-hybrid test was further applied to evaluate the specificity of binding of MACH to MORT-1, in particular, to define the region in MORT-1 to which MACH binds, as well as to determine which of the MACH ORFs interacts with MORT-1, the procedures being as set forth herein above in Examples 1 and 2. Briefly, various MORT-1 and MACH constructs were prepared for testing the interaction of the proteins encoded by the Gal4 DNA-binding domain and activation domain constructs within transfected SFY526 yeast cells as assessed by the β-galactosidase expression filter assay. The DNA-binding domain constructs were prepared in pGBT9 vectors and the activation domain constructs were prepared in pGAD-GM vectors. For the activation domain constructs, the full-length MACH cDNA was used (MACH), as was a construct encoding only the ORF-B (MACH B) region. Control activation domain constructs were those containing the full-length MORT-1 coding sequence (MORT 1, positive control) and those having no inserts, i.e., “empty” vectors (pGAD-GM). […] Control DNA-binding domain constructs, which were constructed to determine also the specificity of the MACH binding, included constructs encoding lamin (Lamin), residues 287-461 of the intracellular domain of the human p75 TNF-R (human p75 IC), cyclic D (cycD), SNF1, residues 206-426 of the intracellular domain of the human p55 TNF-R (human p55 IC), the ‘death domain’ region of the intracellular domain of the human Fas-R (human Fas DD), residues 216-277 of the intracellular domain of the human CD40 (human CD40 IC), vectors without insert or “empty” pGBT9 vectors (pGBT9, negative control), and a construct encoding the ORF-B region of MACH (MACH B). In the assay, the development of color was determined, where the greater the color development, the greater the interaction between the constructs encoded by the DNA-binding domain and activation domain; Color development was depicted by symbols, where “+++” and “+” indicate the development of a strong color within 30 and 90 min. of the assay, respectively, and “−−−” indicates the lack of development of color within 24 hrs. of the assay. In cases where interactions were not tested, no symbol was indicated.

Data set [8] deals with the molecule itself. As to the kind of experiment: yeast two-hybrid, β-galactosidase filter assay. Here is the method:
as §2

For data set [9], the target named is B3. As to the kind of experiment: yeast two-hybrid, β-galactosidase filter assay. Here is the method: as §2
Data set [10] addresses B2. The experiment in a line: yeast two-hybrid, β-gal filter assay (FIG. 5).
In data set [11] the target is B1. As to the kind of experiment: yeast two-hybrid. Here is the method: as §1
Data set [12] concerns the target T1, MACHα1. As to the kind of experiment: yeast two-hybrid. Here is the method: as §1
Data set [13] deals with the molecule itself. The experiment in a line: yeast two-hybrid, β-galactosidase test (FIG. 1).

Bounds are passed on as bounds.

T5 sequence (P04386 1-147 limits assumed): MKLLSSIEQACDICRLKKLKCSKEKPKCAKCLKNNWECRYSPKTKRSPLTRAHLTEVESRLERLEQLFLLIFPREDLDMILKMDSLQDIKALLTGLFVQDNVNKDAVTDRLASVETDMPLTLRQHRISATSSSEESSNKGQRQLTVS

Turning to B1, the binding result in “yeast two-hybrid” is “binds”.

With B2, the binding result (in [1]; with MACHα1 [2]) was “no binding” each time.

For the molecule B3, the binding result in data set [3], in data set [4], in data set [5], in data set [6] and in data set [7] was “no binding” throughout. Besides, the “time to development of strong color (beta-galactosidase filter assay, yeast two-hybrid)” value (from here on “time to development of strong color”) with MACHβ1 (ORF-B of MACH) was 30 to 90 min; in [8] it was not above 30 min.

B4: MACH (construct with the full-length MACH cDNA) (other)
chain: MDFSRNLYDIGEQLDSEDLASLKFLSLDYIPQRKQEPIKDALMLFQRLQEKRMLEESNLSFLKELLFRINRLDLLITYLNTRKEEMERELQTPGRAQISAYRVMLYQISEEVSRSELRSFKFLLQEEISKCKLDDDMNLLDIFIEMEKRVILGEGKLDILKRVCAQINKSLLKIINDYEEFSKERSSSLEGSPDEFSNDFGQSLPNEKQTSGILSDHQQSQFCKSTGESAQTSQH
notes: also called MORT-2
With B4, the “time to development of strong color” value in data set [9] was not above 30 min.

On to B5, for which the binding result is given as “no binding” in data set [10], “binds” in data set [11] and “binds” with MACHα1 [12]. The “time to development of strong color” value in [9] was not above 30 min; in data set [8], 30 to 90 min.

B6: MORT-1 fragment, amino acids 1-117 (N-terminal part) (other)
chain: VNQAPECRFGGGILGPLGKRRDLARASEPRTEGARRAGPQPRPLADPAMDPFLVLLHSVSSSLSSSELTELKFLCLGRVVKRKLERVQSGLDLFSMLLEQNDLEPGHTELLRELLAS
notes: Gal4 fusion in two-hybrid tests; also called MORT-1 head; MORT 'head'
As for B6, the binding result in data set [13] is given as “no binding”.

For the origin of these results see patent publication US20070154905A1 (YEDA RESEARCH AND DEVELOPMENT, published 2007).
